Experimental data reported in article doi:10.1101/2021.06.29.450403.

Molecular target: recombinant rAQP4ct protein (complete cytosolic C-terminal domain of human AQP4, residues 254-323) (human) (UniProt P55087)
Assay: ITC

stoichiometry N: 1
Substance: Chicken calmodulin (CaM) (from UniProt P62149 1-149) (natural protein)
